Assay results taken from patent US20230183319A1.

Tests used:
Test in all cases: cell-based or functional assay
[1] = target: T1, GDF11 (UniProt O95390)
T1 sequence (looked up): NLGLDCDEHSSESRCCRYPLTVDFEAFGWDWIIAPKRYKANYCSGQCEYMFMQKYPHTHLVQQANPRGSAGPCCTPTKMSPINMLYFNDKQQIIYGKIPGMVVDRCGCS

[2] = target: T2, BMP9 (UniProt Q9UK05)
T2 sequence (looked up): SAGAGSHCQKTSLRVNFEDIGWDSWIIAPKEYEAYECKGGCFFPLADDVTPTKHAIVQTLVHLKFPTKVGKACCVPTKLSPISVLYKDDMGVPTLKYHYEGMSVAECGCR

[3] = target: T3, BMP10 (UniProt O95393)
T3 sequence (looked up): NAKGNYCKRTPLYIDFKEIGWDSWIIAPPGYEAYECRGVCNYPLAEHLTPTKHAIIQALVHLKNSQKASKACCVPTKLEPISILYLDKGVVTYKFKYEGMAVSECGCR

[4] = target: T4, activin A (UniProt P08476)
T4 sequence (looked up): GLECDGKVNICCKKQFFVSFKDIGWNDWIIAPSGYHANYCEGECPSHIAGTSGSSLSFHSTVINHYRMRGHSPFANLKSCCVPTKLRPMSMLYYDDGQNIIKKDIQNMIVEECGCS

[5] = target: T5, activin B (UniProt P09529)
T5 sequence (looked up): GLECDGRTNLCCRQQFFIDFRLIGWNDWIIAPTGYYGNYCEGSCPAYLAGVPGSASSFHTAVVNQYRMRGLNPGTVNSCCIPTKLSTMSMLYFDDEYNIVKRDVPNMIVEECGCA

[6] = target: T6, GDF8 (UniProt O14793)
T6 sequence (looked up): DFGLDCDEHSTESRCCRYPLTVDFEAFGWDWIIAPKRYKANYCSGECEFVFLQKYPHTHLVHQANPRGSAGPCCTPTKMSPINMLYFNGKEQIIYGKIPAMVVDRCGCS

Chain of ActRIIB-G1Fc (SEQ ID NO: 5) (Fc fusion) (chain): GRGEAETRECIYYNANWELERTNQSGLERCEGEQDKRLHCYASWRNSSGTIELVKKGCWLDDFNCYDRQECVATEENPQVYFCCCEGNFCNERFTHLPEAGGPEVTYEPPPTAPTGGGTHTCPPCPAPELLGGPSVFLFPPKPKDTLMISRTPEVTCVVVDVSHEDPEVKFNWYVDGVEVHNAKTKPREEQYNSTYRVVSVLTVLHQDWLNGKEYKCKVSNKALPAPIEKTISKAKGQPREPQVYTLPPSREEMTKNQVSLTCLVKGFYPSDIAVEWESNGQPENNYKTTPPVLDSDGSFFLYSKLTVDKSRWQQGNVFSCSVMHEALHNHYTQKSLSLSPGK

Substance	IC50 (ng/mL); A204 CAGA12 luciferase reporter [1]	IC50 (ng/mL); A204 CAGA12 luciferase reporter [2]	IC50 (ng/mL); A204 CAGA12 luciferase reporter [4]	further results
ActRIIB-Fc F82W (Fc fusion)	276 ng/mL	–	–	–
ActRIIB-Fc L79R (Fc fusion)	234 ng/mL	–	–	–
ActRIIB-Fc K74R (Fc fusion)	45 ng/mL	165 ng/mL	–	–
ActRIIB-G1Fc (SEQ ID NO: 5) (Fc fusion)	9 ng/mL	31 ng/mL	8 ng/mL	IC50 (nM); A204 CAGA12 luciferase reporter [3]: 0.036 nM; IC50 (nM); A204 CAGA12 luciferase reporter [4]: 0.05 nM; IC50 (nM); A204 CAGA12 luciferase reporter [5]: 0.067 nM; IC50 (nM); A204 CAGA12 luciferase reporter [6]: 0.95 nM; IC50 (nM); A204 CAGA12 luciferase reporter [2]: 1.82 nM; IC50 (nM); A204 CAGA12 luciferase reporter [1]: 0.12 nM
ActRIIB-Fc K55R (Fc fusion)	318 ng/mL	777 ng/mL	206 ng/mL	–
ActRIIB-Fc K55D (Fc fusion)	365 ng/mL	5500 ng/mL	396 ng/mL	–
ActRIIB(F82T)-G1Fc (Fc fusion)	–	–	–	IC50 (nM); A204 CAGA12 luciferase reporter [3]: 0.07 nM; IC50 (nM); A204 CAGA12 luciferase reporter [4]: 0.1 nM; IC50 (nM); A204 CAGA12 luciferase reporter [5]: 0.09 nM; IC50 (nM); A204 CAGA12 luciferase reporter [6]: 2.17 nM; IC50 (nM); A204 CAGA12 luciferase reporter [1]: 0.27 nM
ActRIIB(F82W, N83A)-G1Fc (Fc fusion)	389 ng/mL	40000 ng/mL	–	–
ActRIIB-Fc A24N (Fc fusion)	99 ng/mL	409 ng/mL	128 ng/mL	–
ActRIIB-Fc E52K (Fc fusion)	296 ng/mL	10000 ng/mL	762 ng/mL	–
ActRIIB-Fc E52A (Fc fusion)	71 ng/mL	359 ng/mL	198 ng/mL	–
ActRIIB(L79K)-G1Fc (Fc fusion)	477 ng/mL	–	–	–
ActRIIB-Fc Y60K (Fc fusion)	414 ng/mL	–	–	–
ActRIIB-Fc Y60P (Fc fusion)	544 ng/mL	–	–	–
ActRIIB-Fc E50P (Fc fusion)	638 ng/mL	3000 ng/mL	756 ng/mL	–
ActRIIB-Fc R40A (Fc fusion)	591 ng/mL	1210 ng/mL	–	–
ActRIIB-Fc E50K (Fc fusion)	180 ng/mL	721 ng/mL	132 ng/mL	–
